B1: ALG-2^F122A, full-length recombinant (natural protein, human, UniProt O75340 1-191, looked up)
chain: MAAYSYRPGPGAGPGPAAGAALPDQSFLWNVFQRVDKDRSGVISDTELQQALSNGTWTPFNPVTVRSIISMFDRENKAGVNFSEFTGVWKYITDWQNVFRTYDRDNSGMIDKNELKQALSGAGYRLSDQFHDILIRKFDRQGRGQIAFDDFIQGCIVLQRLTDIFRRYDTDQDGWIQVSYEQYLSMVFSIV
notes: ALG-2, human, 191 residues, Phe122 substituted with Ala; PDB 2ZN8 is the wild-type full-length parent
B2: ALG-2^F122G, full-length recombinant (natural protein, human, UniProt O75340 1-191, looked up)
chain: MAAYSYRPGPGAGPGPAAGAALPDQSFLWNVFQRVDKDRSGVISDTELQQALSNGTWTPFNPVTVRSIISMFDRENKAGVNFSEFTGVWKYITDWQNVFRTYDRDNSGMIDKNELKQALSGGGYRLSDQFHDILIRKFDRQGRGQIAFDDFIQGCIVLQRLTDIFRRYDTDQDGWIQVSYEQYLSMVFSIV
notes: ALG-2, human, 191 residues, Phe122 substituted with Gly; PDB 2ZN8 is the wild-type full-length parent
B3: ALG-2^F122S, full-length recombinant (natural protein, human, UniProt O75340 1-191, looked up)
chain: MAAYSYRPGPGAGPGPAAGAALPDQSFLWNVFQRVDKDRSGVISDTELQQALSNGTWTPFNPVTVRSIISMFDRENKAGVNFSEFTGVWKYITDWQNVFRTYDRDNSGMIDKNELKQALSGSGYRLSDQFHDILIRKFDRQGRGQIAFDDFIQGCIVLQRLTDIFRRYDTDQDGWIQVSYEQYLSMVFSIV
notes: ALG-2, human, 191 residues, Phe122 substituted with Ser; PDB 2ZN8 is the wild-type full-length parent
B4: ALG-2^F122W, full-length recombinant (natural protein, human, UniProt O75340 1-191, looked up)
chain: MAAYSYRPGPGAGPGPAAGAALPDQSFLWNVFQRVDKDRSGVISDTELQQALSNGTWTPFNPVTVRSIISMFDRENKAGVNFSEFTGVWKYITDWQNVFRTYDRDNSGMIDKNELKQALSGWGYRLSDQFHDILIRKFDRQGRGQIAFDDFIQGCIVLQRLTDIFRRYDTDQDGWIQVSYEQYLSMVFSIV
notes: ALG-2, human, 191 residues, Phe122 substituted with Trp; PDB 2ZN8 is the wild-type full-length parent
B5: synthetic peptide of the ALG-2-binding site in Alix with N-terminal linker (peptide)
peptide: KGGSGGSQGPPYPTYPGYPGYSQ
notes: linker, printed in lower case; also called Alix ABS peptide; ABS oligopeptide; source: synthetic peptide (Biosynthesis Inc., USA)

Key:
[1] = molecular target: B5; assay: SPR; Biacore2000, 25°C; Alix ABS peptide immobilized on CM5 chip; ALG-2 proteins 100 nM in HBS-P (10 mM HEPES-NaOH pH 7.4, 150 mM NaCl, 0.005% P20) with 100 μM CaCl2, 20 μl/min, injected 180 s; resonance signal at 10 s before dissociation phase relative to WT; conditions: both partners purified
[2] = molecular target: T1, ALG-2 (apoptosis-linked gene 2), wild type, full-length recombinant (human, UniProt O75340 1-191); assay: as above; conditions: both partners purified
T1 construct: ALG-2, human, 22-kDa protein of 191 amino acid residues; longer (major) isoform regarded as wild type; also called WT; wild-type ALG-2

Binder	relative binding capacity (% of WT resonance signal) [1] [%]	binding result [2]
B1	240	–
B2	140	–
B3	89	–
B4	36	–
B5	–	binds
